Test results as given in US20110065633A1, “ESTER-BASED PEPTIDE PRODRUGS” (INDIANA UNIVERSITY RESEARCH AND TECHNOLOGY CORPORATION, priority 2008, published 2011).
Where two headings read alike, the source gives them in different places. One block for each molecule: values may come before it. Bridges are numbered along the chain shown (N, C = ends). Where no end group is shown, it is not given here. [ ]: non-standard residue; d: D form. PhLac = O=C(O)[C@@H](O)Cc1ccccc1

Legend:
Test in all cases: cell-based or functional assay
[1] = biological target: T1, GLP-1 receptor (Homo sapiens, UniProt P43220)
[2] = biological target: glucagon receptor (UniProt P47871)
[3] = biological target: T1, GLP-1 receptor; remark: listed apart in the source
[4] = biological target: glucagon receptor (UniProt P47871); remark: listed apart in the source
[5] = biological target: glucagon receptor (UniProt P47871 26-477)
[6] = biological target: T2, GLP-1 receptor (UniProt P43220 24-463, limits assumed)
[7] = biological target: T2, GLP-1 receptor; remark: listed apart in the source

glucagon receptor (UniProt P47871 26-477), sequence (P47871 26-477 limits assumed): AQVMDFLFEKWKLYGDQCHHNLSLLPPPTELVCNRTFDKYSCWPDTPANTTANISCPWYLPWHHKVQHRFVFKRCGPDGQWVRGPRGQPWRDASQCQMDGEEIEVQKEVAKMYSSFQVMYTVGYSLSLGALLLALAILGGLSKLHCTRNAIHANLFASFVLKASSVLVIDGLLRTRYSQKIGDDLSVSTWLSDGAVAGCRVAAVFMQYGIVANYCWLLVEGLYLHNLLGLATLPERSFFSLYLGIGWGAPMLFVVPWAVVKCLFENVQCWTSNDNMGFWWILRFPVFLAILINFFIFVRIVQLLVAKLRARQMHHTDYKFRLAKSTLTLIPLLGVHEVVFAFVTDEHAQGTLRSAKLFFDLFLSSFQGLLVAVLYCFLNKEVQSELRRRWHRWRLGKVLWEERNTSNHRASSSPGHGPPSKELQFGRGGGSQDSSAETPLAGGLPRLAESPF
glucagon receptor (UniProt P47871), sequence (P47871 26-477 limits assumed): as above
T1 sequence (P43220 24-463 limits assumed): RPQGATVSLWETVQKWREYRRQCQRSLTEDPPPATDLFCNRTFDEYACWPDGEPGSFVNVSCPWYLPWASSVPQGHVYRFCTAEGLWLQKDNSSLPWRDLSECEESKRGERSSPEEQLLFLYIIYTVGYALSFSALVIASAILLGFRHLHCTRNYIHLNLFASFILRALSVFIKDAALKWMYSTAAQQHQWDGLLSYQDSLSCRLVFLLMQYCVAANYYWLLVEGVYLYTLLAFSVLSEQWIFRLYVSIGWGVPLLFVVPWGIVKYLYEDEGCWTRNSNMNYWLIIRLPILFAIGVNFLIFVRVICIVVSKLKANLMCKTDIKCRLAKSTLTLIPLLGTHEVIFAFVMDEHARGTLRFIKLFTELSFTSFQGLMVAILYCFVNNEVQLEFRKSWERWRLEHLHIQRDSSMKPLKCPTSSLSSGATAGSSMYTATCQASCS

Molecule: Glucagon (6-CEX) analog D9, K12E16(Lactam) (peptide)
- GLP-1 EC50 [1]: 119 nM
- Glu IC50 [2]: 828 nM
- GLP-1 EC50 [3]: 18 nM
- Glucagon IC50 [4]: 828 nM

B1: [E9, E16K20(lactam), D28]G(4-29) (peptide)
peptide: GTFTSEYSKYLDERRAKDFVQWLMDT-NH2
modifications: lactam 13-17; N-terminus assumed
SMILES: CSCC[C@H](NC(=O)[C@H](CC(C)C)NC(=O)[C@H](Cc1c[nH]c2ccccc12)NC(=O)[C@H](CCC(N)=O)NC(=O)[C@@H](NC(=O)[C@H](Cc1ccccc1)NC(=O)[C@H](CC(=O)O)NC(=O)[C@@H]1CCCCNC(=O)CC[C@H](NC(=O)[C@H](CC(=O)O)NC(=O)[C@H](CC(C)C)NC(=O)[C@H](Cc2ccc(O)cc2)NC(=O)[C@H](CCCCN)NC(=O)[C@H](CO)NC(=O)[C@H](Cc2ccc(O)cc2)NC(=O)[C@H](CCC(=O)O)NC(=O)[C@H](CO)NC(=O)[C@@H](NC(=O)[C@H](Cc2ccccc2)NC(=O)[C@@H](NC(=O)CN)[C@@H](C)O)[C@@H](C)O)C(=O)N[C@@H](CCCNC(=N)N)C(=O)N[C@@H](CCCNC(=N)N)C(=O)N[C@@H](C)C(=O)N1)C(C)C)C(=O)N[C@@H](CC(=O)O)C(=O)N[C@H](C(N)=O)[C@@H](C)O
- Glucagon IC50 [5]: 10 to 30 nM
- GLP-1 EC50 [6]: 151 nM

B3: [PLA6, D9, E16, E24K28(lactam), D28]G(6-29) (peptide)
peptide: [PhLac]TSDYSKYLDERRAQDFVEWLMKT-NH2
modifications: lactam 19-23; N-terminus assumed
SMILES: CSCC[C@@H]1NC(=O)[C@H](CC(C)C)NC(=O)[C@H](Cc2c[nH]c3ccccc23)NC(=O)[C@@H](NC(=O)[C@@H](NC(=O)[C@H](Cc2ccccc2)NC(=O)[C@H](CC(=O)O)NC(=O)[C@H](CCC(N)=O)NC(=O)[C@H](C)NC(=O)[C@H](CCCNC(=N)N)NC(=O)[C@H](CCCNC(=N)N)NC(=O)[C@H](CCC(=O)O)NC(=O)[C@H](CC(=O)O)NC(=O)[C@H](CC(C)C)NC(=O)[C@H](Cc2ccc(O)cc2)NC(=O)[C@H](CCCCN)NC(=O)[C@H](CO)NC(=O)[C@H](Cc2ccc(O)cc2)NC(=O)[C@H](CC(=O)O)NC(=O)[C@H](CO)NC(=O)[C@@H](NC(=O)[C@@H](O)Cc2ccccc2)[C@@H](C)O)C(C)C)CCC(=O)NCCCC[C@@H](C(=O)N[C@H](C(N)=O)[C@@H](C)O)NC1=O
- Glucagon IC50 [5]: 22 nM
- GLP-1 EC50 [6]: 289 nM

Next, values leading:

- Glucagon IC50 [5]: 10 to 30 nM
- GLP-1 EC50 [7]: 4 nM
B2: [PLA6, D9, E16K20(lactam), D28]G(6-29) (peptide)
peptide: [PhLac]TSDYSKYLDERRAKDFVQWLMDT-NH2
modifications: lactam 11-15

- GLP-1 EC50 [7]: ~700 nM
B4: PLA 6, D9, D28 (peptide)
peptide: FTSDYSKYLDSRRAQDFVQWLMDT
modifications: residue 1 (position 6) is phenyl lactic acid (PLA), written here as F
